Data as given in patent publication US12662540B2, “Compositions and methods for inhibition of MICA/B shedding” (DANA-FARBER CANCER INSTITUTE, INC., priority 2017, dated 2026).

Experiments:
B16F10-MICA cells = experiment: Mouse NK cell transfer and B16F10-MICA metastases in Rag2−/− Il2rg−/− mice; type: in vivo
Method: NK cell adoptive transfer was done as described previously (25). Briefly, NK cells from mice of indicated genotypes were isolated from the spleen, enriched by negative selection, and sorted to achieve an NK cell purity of ˜99%. Subsequently, 2×10^5 NK cells were injected intravenously into Rag2^−/− IL2rg^−/− mice. Three days later, reconstitution was checked in blood samples by flow cytometry, and no differences in NK cell frequency were observed among the NK cell genotypes. Subsequently, 4×10^5 B16F10-MICA cells (with luciferase reporter) were injected intravenously (day 0). On days 1, 2, 7, and 10, mice received 200 μg 7C6-mIgG2b or MPC-11 (isotype control) by intraperitoneal injection. Mice were bled at the indicated time points. Euthanasia by CO2 inhalation was performed on day 14 followed by counting of superficial lung metastases as described above.

MICA = experiment: ELISA for antibody binding to immobilized MICA extracellular domain (α1-α3 domains; alleles 002, 008, 009, 018); parameters: species or system human; conditions: immobilized antigen
Method: ELISA experiments were performed in DELFIA® 96-well plates (Perkin Elmer) or in Nunc Maxisorp 96-wells plates (Thermo Scientific). Wells were coated with antigens by overnight incubation at 4° C. using 100 ng of protein in 100 μl of carbonate buffer, […]. Plates were subsequently washed with 1× Tris-buffered saline-Tween buffer and incubated for 2 hours with 2% bovine serum albumin (BSA) in phosphate buffered saline (PBS), pH 7.4, or DELFIA® Assay Buffer (Perkin Elmer) at room temperature. MICA antibodies were used at 1 μg/ml, unless indicated otherwise. Isotype controls were MPC-11 (mIgG2b) and MOPC-21 (mIgG1), but only MPC-11 is shown in the figures, given that no differences were observed between these controls. Human isotype control was a recombinant human IgG1 antibody (BE0096, BioXcell). Biotinylated goat anti-mouse IgG (Poly4053—Biolegend) was used as the secondary antibody which was followed by streptavidin-Europium (Perkin Elmer) and DELFIA® Enhancement Solution (Perkin Elmer). Europium fluorescence was quantified using an EnVision® microplate reader (Perkin Elmer). The HRP-conjugated secondary antibodies were Novex® Goat anti-human IgG (A24470, Life Technologies), Goat anti-mouse IgG1 (1070-05), IgG2a (1080-08), IgG2b (1090-05), and IgG3 (1100-05), and Goat anti-mouse IgG (31430, Thermo Scientific). […] Absorbance was read at 450 nm.

B1: 7C6: monoclonal antibody from mice immunized with recombinant MICA α3 domain; parental mIgG2b; VH SEQ ID NO: 7, VL SEQ ID NO: 8 (antibody)
VH: QIQLVQSGPELKKPGETVKVSCKASGYMFTNYAMNWVKQAPEKGLKWMGWINTHTGDPTYADDFKGRIAFSLETSASTAYLQINNLKNEDTATYFCVRTYGNYAMDYWGQGTSVTVSSAKTTAPSVYPLAPVCGDTTGSSVTLGCLVKGYFPEPVTLTWNSGSLSSGVHTFPAVLQSDLYTLSSSVTVTSS
VL: DIQMTQTTSSLSASLGDRVTISCSASQDISNYLNWYQQKPDGTVKLLIYDTSILHLGVPSRFSGSGSGTDYSLTISNLEPEDIATYYCQQYSKFPRTFGGGTTLEIK
modifications: mAb 7C6 heavy chain amino acid sequence; mAb 7C6 light chain amino acid sequence
lung metastases after transfer of NK cells deficient in either NKG2D (Klrk1) or CD16 (Fcgr3a) (B16F10-MICA cells; day 14): therapeutic effect was maintained (but more variable)
lung metastases after transfer of NK cells lacking both NKG2D and CD16 (B16F10-MICA cells; day 14): antibody therapy was ineffective
lung metastases after transfer of WT NK cells (B16F10-MICA cells; day 14): most consistent reduction in the number of lung metastases
serum shed MICA after transfer of NK cells lacking both NKG2D and CD16 (B16F10-MICA cells; mouse, in vivo): shed MICA was still reduced
binding to MICA full-length extracellular domain (MICA): also the full-length extracellular domain
